Test: soluble on expression in E. coli; label from the status in PepcDB or PDB records

Sequence	soluble on expression in E. coli
MITSPTNLNSLPIPPGDFGLPWLGETLNFLNDGDFGKKRQQQFGPIFKTRLFGKNVIFISGALANRFLFTKEQETFQATWPLSTRILLGPNALATQMGEIHRSRRKILYQAFLPRTLDSYLPKMDGIVQGYLEQWGKANEVIWYPQLRRMTFDVAATLFMGEKVSQNPQLFPWFETYIQGLFSLPIPLPNTLFGKSQRARALLLAELEKIIKARQQQPPSEEDALGILLAARDDNNQPLSLPELKDQILLLLFAGHETLTSALSSFCLLLGQHSDIRERVRQEQNKLQLSQELTAETLKKMPYLDQVLQEVLRLIPPVGGGFRELIQDCQFQGFHFPKGWLVSYQISQTHADPDLYPDPEKFDPERFTPDGSATHNPPFAHVPFGGGLRECLGKEFARLEMKLFATRLIQQFDWTLLPGQNLELVVTPSPRPKDNLRVKLHSLM	soluble
MKAPVRVAVTGAAGQIGYSLLFRIAAGEMLGKDQPVILQLLEIPQAMKALEGVVMELEDCAFPLLAGLEATDDPKVAFKDADYALLVGAAPRKAGMERRDLLQVNGKIFTEQGRALAEVAKKDVKVLVVGNPANTNALIAYKNAPGLNPRNFTAMTRLDHNRAKAQLAKKTGTGVDRIRRMTVWGNHSSTMFPDLFHAEVDGRPALELVDMEWYEKVFIPTVAQRGAAIIQARGASSAASAANAAIEHIRDWALGTPEGDWVSMAVPSQGEYGIPEGIVYSFPVTAKDGAYRVVEGLEINEFARKRMEITAQELLDEMEQVKALGLI	soluble
MGSDKIHHHHHHMADETISLDYYAPRFRVEIDGETIPQDGIVSVEVDETLDAPAMVSLAFNETLDPRSQTFAWLDNPKLVPGAEVKVFLGYTGRAVPAPKPLFEGRLHTLTPAFQNSGVPSLMVQGYDHSHGLQKVKSHFSRTNARASDAASEIARLNGLDASGVEATATVHPSIRQGEDEVDLEFLRRLARDLGFEVFVRGKALMFRTPADEETELLTFQWGRNLVSFTPRLSTSAQVSEVRVRGWNPATKERIEGKATVADLKGLAGGVSGAEQAGSGGEPVVRSIEDRPVFSREEADALARAELNRLNDGFITGTGETIGMPELRPGITVAIQGIGTRFSGRYYVKGARHSLGDSGYRTTFEVRRNALGSL	not soluble
MDAIITGESERIGLSVIDNNDVEHLIETNESGEITYHEQDGYPDDSSKRTDEGNEYVNQARKYAKYYVYLKRGYDTVSAPENPVRIDAVRQAIAQMDLETFETHFGDLYQQFSSETDGSAEPVYDVPPQATTPPIYAQNVYLGIDPLETDLGDELAAKHDLDITAESAADVAIADLSTEEIKQWGEFTGEFATRAIEEQIDLSDAVYIDNTSQLYVKHPEGTDLVAADDHLEPTSREPDTVIELLPIELESLEYFQSFMDHYLRCQIRDVFIEMGVVPPEEFRVLGLGQFMAAHCYSYIDFYPEFHNPESGAFTQQTSLF	not soluble
MSQLPGLSRETRESIAMYHLRVPQTEEELERYYQFRWEMLRKPLHQPKGSERDAWDAMAHHQMVVDEQGNLVAVGRLYINADNEASIRFMAVHPDVQDKGLGTLMAMTLESVARQEGVKRVTCSAREDAVEFFAKLGFVNQGEITTPTTTPIRHFLMIKPVATLDDILHRGDWCAQLQQAWYEHIPLSEKMGVRIQQYTGQKFITTMPETGNQNPHHTLFAGSLFSLATLTGWGLIWLMLRERHLGGTIILADAHIRYSKPISGKPHAVADLGALSGDLDRLARGRKARVQMQVEIFGDETPGAVFEGTYIVLPAKPFGPYEEGGNEEELEHHHHHH	not soluble
MSLEITNPILTGFNPDPSLCRQGEDYYIATSTFEWFPGVRIYHSRDLKNWSLVSTPLDRVSMLDMKGNPDSGGIWAPCLSYADGKFWLLYTDVKIVDSPWKNGRNFLVTAPSIEGPWSEPIPMGNGGFDPSLFHDDDGRKYYIYRPWGPRHHSNPHNTIVLQAFDPQTGTLSPERKTLFTGTPLCYTEGAHLYRHAGWYYLMAAEGGTSYEHAVVVLRSKNIDGPYELHPDVTMMTSWHLPENPLQKSGHGSLLQTHTGEWYMAYLTSRPLRLPGVPLLASGGRGYCPLGRETGIARIEWRDGWPYVEGGKHAQLTVKGPQVAEQPAAVPGNWRDDFDASSLDPELQTLRIPFDDTLGSLTARPGFLRLYGNDSLNSTFTQSTVARRWQHFAFRAETRMEFSPVHFQQSAGLTCYYNSKNWSYCFVDYEEGQGRTIKVIQLDHNVPSWPLHEQPIPVPEHAESVWLRVDVDTLVYRYSYSFDGETWHTVPVTYEAWKLSDDYIGGRGFFTGAFVGLHCEDISGDGCYADFDYFTYEPVEGHHHHHH	not soluble
MSLLFASLLKNRLRLGQLTMIDAKGQTHVLGGDGPGPRVTIRLTDPSLHRRLFLRPHLAIGEAYMEGTLIIERGGLRDFLELIGANLAAIEGSPWVALGQRLSGLMRRLQQRNPVWRSRRNVAHHYDLSGAFYDLFLDSDRQYSCAYFARDGDSLEQAQDNKKRLIAAKLMLRPGQHVLDIGCGWGGLALHLARHHDVRVTGITLSQEQAALARERVRAAGLQDRVTILLKDYRDLDGRFDRVVSVGMLEHVGAPQLADYFRHVGGLLSDDGVALIHSIGRMEPPGSTNVWIRKYIFPGGYSPALSETLAAVEGSGLYLTDAEILRLHYARTLAEWTRRFQANREAARALYDERFCRMWEFYLLGCEMAFRHGNQMVFQLQLARREGHHHHHH	soluble
GSHEHPEFLKAGKEPGLQIWRVEKFDLVPVPTNLYGDFFTGDAYVILKTVQLRNGNLQYDLHYWLGNECSQDESGAAAIFTVQLDDYLNGRAVQHREVQGFESATFLGYFKSGLKYKKGGVASGFKHVETQEKNPLPSKETIEQEKQ	soluble
MDEVDVALIGAGIMSATLGAMLRTLEPGWTQVMFERLDAPAQESSSPWNNAGTGHSALCELNYTPEVKGRVQIDKALGVNEKFQISRQFWSYQVNEGVLPSPREWINPVPHVSFGRGEDQVAYLKKRYEALAAHPLFPNMQYTDDRAKFAEMLPLMADGRSEFEKVAISWTDAGTDINYGSQTRQFLKAAEKNGTEIRYGHEVKDIKRDGAKWRVTVKNVHTGDTQVIRANFVFVGAGGMALPLLQKTGLEHHHHHH	soluble
SLNRESERDVIKVGIIGDFTGICSELERGKVAAYKLAADEINRMGGINEKKVELLFRDDRSLSELTREAVKELTEEERVDVLMGSTLSPSREIMQHYADQTKTLYLDTQQTEGGVSSHYTFCLSAMPEQQMTQMLAYLLQKYGRKCYVVAADYNYGILSAEWVKYLVHQLGGEIVGVEYLDDRITDFNPLIDRILQLEADILFSICVFPNHDAFYLQWHQRGLNHIPNASTMVAAEAYQNVRFAPPVLENMYVMASFIEELNTPAAQRFVKKFRAAYDHREVPYMSMDTETVYTAMYVYKRAVELAGTTDTEEVITALESGAVYVDGPGGRVTVRGEDHHTSRSLSCFRINNQHRAEELFCTNPIHSDYIESMIEQTMGVKGGIKAMGANAPSTQYNMLLNKFRWHPSEG	soluble
MGSDKIHHHHHHMNGQKIIGSQCITQCNPDLRITELIIPGTHDSATSTCYERYYRTQDLSIAEQLDCGVRFLDIRLRKEMVAAHREWVSDIRAEEIFEKCGEFLQKNPQEFVLMRIQNANERKDDFPEYGEALLSKVQQYKSLFYAWDHSQIVQDGNPKWPTIAQAAGKIVPIECAPPSMSINKIDGELWAANWHDNSQILLQDLWDGPTVEEKCVAIKTLIEKGREVHSDILLLNHISATNGELQYPDAYAAYLNEYSSRLWKQLAKRSFRGVQIYDFINPSICQELLRLNFD	not soluble
GMKPLKEVVGAYLALSDAQRQLVAGEYDEAAANCRRAMEISHTMPPEEAFDHAGFDAFCHAGLAEALAGLRSFDEALHSADKALHYFNRRGELNQDEGKLWISAVYSRALALDGLGRGAEAMPEFKKVVEMIEERKGETPGKERMMEVAIDRIAQLGAS	soluble
MIRLQKFKQLTVWVMLGLLTSWIVSCSTDNVGTISKPVTSEVTKIEFWTMQLQPQFTNYFQSLITSFESQNPSIKVKWVDVPWSAMENKILTAVSAKTPPDVVNLNPDFASQLAGRNAWLDLDEKVPSEVSSSYLPNIWQASTLNGKTFGIPWYLTTRLTIYNTDLLKQAGITKPPATYTELAQEAQQIKDKTGKYAFFATFVPQDSGEVLESFVQMGVTLVNAEGKAAFNSPQGKAAFQYWVYLYKKGLLPKESLTQGHRHAIDLYQSGETAFLASGPEFLETISNNAPKISQASAIAPQITGDTGKKNVAVMNIVIPRASKQPDAAVKFALFVTNDENQLAFAKAANVLPSTVTALADSYFKEVPATATIAEKGRIISAQQMQTAEVLTPKMKDFKFLQKAIYENLQAAMLGQKTVDKALEDAAQQWNNR	not soluble

Source: the DeepSol protein solubility set
